The record followed here is publication PMC7299281.

The target of the assay is stabilized prefusion SARS-CoV-2 S ectodomain (SARS-CoV-2) (UniProt P0DTC2). Briefly: negative-stain electron microscopy.

The substance COVA1-12 Fab had a stoichiometry N (Fab per trimer) of 1.
Same read-out and setting: the figure for COVA2-04 Fab is 1; for COVA2-07 Fab it is 1.
In turn, COVA2-15 Fab registered a stoichiometry N of 3 per trimer.
With COVA2-39 Fab, the stoichiometry N (Fab per trimer) was 1.
